Target: Nucleocapsid protein (N) (SARS-CoV-2, UniProt P0DTC9 1-419)
Assay: EMSA; no sdAb; Hill fixed at 5
Conditions: protein: recombinant, tags: His6 or His6-MBP N-terminal fusion vector, TEV cleavage, chain copies: 2

Row | Binder | Kd (label: 5'-FAM on strand 1, blunt) [nM] | Kd (label: 5'-FAM, single strand) [nM]
1 | 7mer dsRNA (dsRNA) RNA 1: CACUGAC RNA 2: GUCAGUG | 480 ± 30 | 
2 | CACUGAC (ssRNA) [7mer ssRNA] |  | 560 ± 60

— paper PMC8351461
